3 molecules from patent US20260193356A1 can be followed below.

The target in test [1] is dog (Canis lupus) PDL1 (dPDL1) expressed on CHO-S cells (CHO-S-dPDL1) (dog (Canis lupus)). Kind of test: flow cytometry on CHO-S-dPDL1 cells; antibody 1 µg/mL.
Test [2] has the same target. The test can be described thus: flow cytometry on CHO-S-dPDL1 cells; antibody 0.1 µg/mL. (In general: In flow cytometry, cells or beads pass a laser one at a time.)

Sequence of dog (Canis lupus) PDL1 (dPDL1) expressed on CHO-S cells (CHO-S-dPDL1) (dog (Canis lupus)) (chain, as listed by the source limits assumed, form in doubt): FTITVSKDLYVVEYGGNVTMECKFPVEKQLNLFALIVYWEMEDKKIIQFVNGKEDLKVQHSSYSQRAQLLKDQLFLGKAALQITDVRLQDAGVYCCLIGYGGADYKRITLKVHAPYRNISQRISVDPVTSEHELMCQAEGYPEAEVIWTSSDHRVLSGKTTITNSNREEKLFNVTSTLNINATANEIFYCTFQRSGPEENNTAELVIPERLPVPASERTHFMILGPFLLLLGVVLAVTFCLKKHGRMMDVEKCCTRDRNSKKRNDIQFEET

B1: B22E02-N297A (antibody, human IgG1, V domains shown)
VH: QVQLVQSGGGLVQPGRSLRLSCRASGFTFDGYSMNWVRQAPGKGLEWVGFIRSKGYGGTSESAASVKGRFTISRDDSKSIAYLQMNSLKTEDTAVYYCTRTRNWNDEGYFDYWGLGTLVTVSS
VL: DIQMTQSPSSLSASVGDRVTITCQASQDINKYLNWYQQKPGKAPKLLIYDASNSETGVPSRFSGSGSGTDFTFTISSLQPEDISTYYCQQYDILPITFGQGTRLEIK
Regarding B1, the Percentage of Positive Cells (%) in test [1] is 67.8%; in test [2], 51%.

B2: B20B02-N297A (antibody, human IgG1, V domains shown)
VH: QVQLQQSGGGVVQPGRSLRLSCAASGFTFSTYGMHWVRQAPGKGLEWVAALSFDGGNIYYGDSVKGRFTISRDNSKNTLYLQMNSLRAEDTALYYCAKARLPYSYDAVDYWGQGTLVTVSS
VL: EIVMTQSPATLSVSPGERATLSCRASQSVSSNLAWYQQKPGQAPRLLIYDTSTRAIGIPARFSGSGSGTEFTLTISSLQSEDFAIYYCHQYNFWPPITLGQGTRLEIK
On to B2, for which the Percentage of Positive Cells (%) was determined as 70.7% in test [1] and 53.1% in test [2].

B3: B21A06-N297A (antibody, human IgG1, V domains shown)
VH: QVQLQESGGDVVQPGRSLRLSCAASGFTFNNYGMHWVRQAPSKGLEWVAFIWYDGSNKYYGDSVKGRFTISRDNSKNTLYLQMNSLRAEDTALYYCARGDNWNSDAFDIWGPGTMVTVSS
VL: EIVMTQSPLSLPVTLGQPASISCRSSQSLVYTNGNTYLNWFQQRPGQSPRRLIYKVSSRDSGVPDRFSGSGSGTDFTLKISRVAAEDVGLYYCMQGTHWPLTFGGGTKVEIK
On to B3, for which the Percentage of Positive Cells (%) in test [1] worked out at 62.5%; in test [2] it was 50.5%.
